Laboratory results as given in paper PMC7308506.

Columns and labels:
[1] = molecular target: thrombin (UniProt P00734)
[2] = molecular target: kallikrein
[3] = molecular target: activated factor XII
[4] = molecular target: activated factor X
[5] = molecular target: LCTX-F2 (Lycosa singoriensis); assay: SPR; Biacore 3000; LCTX-F2 amine-coupled to CM5 (2,000 RU); FXIIa, kallikrein, FXa and thrombin as analytes, 0-100 ug/ml in twofold dilutions; 25 C; HBS-EP (10 mM HEPES pH 7.4, 3 mM EDTA, 150 mM NaCl, 0.05% P20); 30 ul/min, 120 s association, 300 s dissociation

Substance	Kd [5] [µM]	also measured
LCTX-F2 (peptide)	–	increase of the activity of thrombin (chromogenic substrate) at 3 µM LCTX-F2 [1]: 36.9%; increase of the activity of kallikrein (chromogenic substrate) at 3 µM LCTX-F2 [2]: 33.3%; increase of the relative protease activity of FXIIa (chromogenic substrate) at 0.03, 0.3 and 3 µM LCTX-F2: 1.2%, 44.0%, 96.0% [3]: 96%; increase of the activity of FXa (chromogenic substrate) at 3 µM LCTX-F2 [4]: 34.8%
activated factor X (enzyme)	0.18	–
activated factor XII (enzyme)	7.2	–
kallikrein (enzyme)	4.6	–
thrombin (from UniProt P00734 364-622; P00734 364-622) (enzyme)	0.7	–
